Laboratory results from the supplement of paper PMC9170038.

System: MS2 coat protein
Test: apparent KD of MS2 coat protein; designed switch direction (-1 OFF switch, 1 ON switch): -1; higher = weaker reporter binding
Procedure, shortened: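 An oligonucleotide input, 200 uM small-molecule ligand, or no input was present during titration of SNAP-549-labelled MS2 coat protein, which was doubled from 0.7 or 1.5 nM to 3 µM. Designed RNA switches had been transcribed on Illumina chips by stalled E. coli RNA polymerase. Apparent KD per design is the median over clusters of curves fitted to normalised cluster fluorescence.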

[1] = Eterna round: R95, input ligand: microRNA oligo, concentration not stated
[2] = input ligand: microRNA oligo, concentration not stated
[3] = Eterna round: R95, input ligand: FMN 200 uM
[4] = Eterna round: R95, input ligand: none

| Sequence | apparent KD of MS2 coat protein (input ligand: FMN 200 uM) | apparent KD of MS2 coat protein (input ligand: none) | apparent KD of MS2 coat protein [1] | apparent KD of MS2 coat protein [2] | apparent KD of MS2 coat protein [3] | apparent KD of MS2 coat protein [4] |
| --- | --- | --- | --- | --- | --- | --- |
| UUGUAACAUGAGGAUCACCCAUGUGAGGAUAUGGUUAAGUAAUGUAAUGUAAAGUAAUCCAGAAGGCACAUGUU [1st #24] (Eterna round: R97, puzzle: Exclusion 1) | 0.488 µM | 0.328 µM |  |  |  |  |
| UUGUACAUAGGAUAUAGUUGUUUCUACAUGAGGAUCACCCAUGUUAUUCCUCUCUCCCUUCUAGAAGGAUGUUUUU [JR_E5_Sub006] (puzzle: Exclusion 5) |  |  | 0.0436 µM |  |  |  |
| UUGUACCGGUGAGGAUAUUUUUAAUAGAGCUUUAUGAUAUACAUGAGGAUCACCCAUGUUACGUUGAAGAAGGCAUCGGAUUAU [JL JR Sub091 mod 5] (Eterna round: R96, puzzle: Exclusion NG 2) | 0.0193 µM | 0.0198 µM |  | 0.0155 µM |  |  |
| UUGUCGCAUGUAGGAUAUGUAUGUUAUUAUCAUACAGAAGGACAUGAGGAUCACCCAUGUGUAUUAUUAUUAUAUGUUACAUAU [MOD of Hoglahoo's a different Title] (Eterna round: R96, puzzle: Exclusion NG 1) |  |  |  | 0.014 µM |  |  |
| UUGUCGGCAGGAUAUACAUGAGGAUCACCCAUGUAAAUUUUUCGUUUAACUUGAAUGUGUAGAAGGGCCAUGUU [Ex3 #71] (Eterna round: R97, puzzle: Exclusion 3) | 0.0353 µM | 0.0245 µM |  |  |  |  |
| UUGUGCACGCUGCGAUCCUACAUGAGGAUCACCCAUGUGGUCUGGUGGCGUGGGUCACCGGACUUGGCUCGUCUUGU [salish99_S_TOV1_R5_080] (Eterna round: R97, puzzle: Sensor, turn-off variant 1) | 0.0696 µM | 0.0808 µM |  |  |  |  |
| UUGUUAUAUGAAGGAUAUACUUAACAUGAGGAUCACCCAUGUGGUGUUGUGAGUGAGUGAGUUUAGUAGAAGGUCAAUUCUUUU [JMF's solution 94] (Eterna round: R96, puzzle: Exclusion NG 2) | 0.735 µM | 0.421 µM |  | 0.44 µM |  |  |
| UUGUUAUAUGUAGGAUAUGCAUAUUAUUAUUAUGCAGAAGGACAUGAGGAUCACCCAUGUAUAUUAUUAUUAUAUGUUAUAUAU [Title] (Eterna round: R96, puzzle: Exclusion NG 1) |  |  |  | 0.0195 µM |  |  |
| UUGUUAUAUGUAGGAUAUGCAUAUUGUUGUUAUGCAGAAGGACAUGAGGAUCACCCAUGUAUAUUAUUGUUAUAUAUUGUAUAU [Title] (Eterna round: R96, puzzle: Exclusion NG 1) |  |  |  | 0.0201 µM |  |  |
| UUGUUAUAUGUAGGAUAUGCGUAUUAUUGUUAUGCAGAAGGACAUGAGGAUCACCCAUGUAUAUUAUUGUUAUAUAUUAUAUAU [Title] (Eterna round: R96, puzzle: Exclusion NG 1) |  |  |  | 0.0203 µM |  |  |
| UUGUUCCGUGUAGGAUAUUGGUCUCCCUCGGGCCGAGAAGGACAUGAGGAUCACCCAUGUAUGUUAUUAUCGCGCGUGGCGCAU [Design 91] (Eterna round: R96, puzzle: Exclusion NG 1) | 0.112 µM | 0.0379 µM |  | 0.0216 µM |  |  |
| UUGUUGUAUGUAGGAUAUGCGUGUUAUUAUUAUGCAGAAGGACAUGAGGAUCACCCAUGUAUAUUAUUAUUAUAUGUUAUAUAU [Title] (Eterna round: R96, puzzle: Exclusion NG 1) |  |  |  | 0.0176 µM |  |  |
| UUGUUGUGUGUAGGAUAUGCGUAUUAUUAUUAUGCAGAAGGACAUGAGGAUCACCCAUGUGUAUUAUUAUUAUAUAUUAUAUAU [Title] (Eterna round: R96, puzzle: Exclusion NG 1) | 0.0433 µM | 0.025 µM |  | 0.0218 µM |  |  |
| UUGUUGUGUGUAGGAUAUGCGUGUUAUUAUUAUGCAGAAGGACAUGAGGAUCACCCAUGUGUAUUAUUAUUAUAUAUUAUAUAU [Title] (Eterna round: R96, puzzle: Exclusion NG 1) | 0.0238 µM | 0.0235 µM |  | 0.0171 µM |  |  |
| UUUAAAACAUAGGAUAUCGAAAAUAUCAUUUAACGAGAAGGAUGAACAUGAGGAUCACCCAUGUGGUAUCAUGG [Mat - Exclusion 6 - JL Mod - D16] (puzzle: Exclusion 6) |  |  | 0.58 µM |  | 0.32 µM | 0.313 µM |
| UUUAACGAUGAGGAUAUAUGAUAUCAAAGCAUCAUAGAAGGCAUCACAUGAGGAUCACCCAUGUGAUCUUCUUG [Mat - Exclusion 6 - JL Mod - D28] (Eterna round: R97, puzzle: Exclusion 6) | 0.094 µM | 0.0294 µM |  |  |  |  |

| Sequence | apparent KD of MS2 coat protein (input ligand: FMN 200 uM) | apparent KD of MS2 coat protein (input ligand: none) | apparent KD of MS2 coat protein [1] | apparent KD of MS2 coat protein [2] | apparent KD of MS2 coat protein [3] | apparent KD of MS2 coat protein [4] |
| --- | --- | --- | --- | --- | --- | --- |
| UUUAAGGAAGGAUAUACAAUAUAAAUAAUAUCCUCAUUAUUACAUGAGGAUCACCCAUGUAGAAGGUCCAAUUU [Mat - Exclusion 2 - Mod of Hog - D89] (puzzle: Exclusion 2) |  |  | 0.137 µM |  |  |  |
| UUUAAGUAAGGAUAUGCGAGCCACGGAAAUAAAACGUGGAGGUAGAAGGUACAUGAGGAUCACCCAUGUAAAAC [Mod of Anonveat 23 - Jieux - Exclusion 4] (Eterna round: R97, puzzle: Exclusion 4) | 0.0218 µM | 0.0231 µM |  |  |  |  |
| UUUAAUUGUCAGAUGGGUGACAUGAGGAUCACCCAUGUCACAAGCUUUUUGUUCGUCUUAUAAUUAACCCAUCUGAC [Stov1/11-B1] (Eterna round: R97, puzzle: Sensor, turn-off variant 1) | 0.014 µM | 0.0138 µM |  |  |  |  |
| UUUAAUUUAAUUAAGAUCACAUGAGGAUCACCCAUGUAAUUAUAGGAUAUCAGCUCGAUUAGAGCUGAGAAGGAUAAUUACAUA [ExNG3/5-A1] (Eterna round: R96, puzzle: Exclusion NG 3) | 0.105 µM | 0.0581 µM |  | 0.0751 µM |  |  |
| UUUAAUUUAAUUAAGAUCACAUGAGGAUCACCCAUGUAAUUAUAGGAUAUCAGCUCGUUUAGAGCUGAGAAGGAUAAUUACAUA [ExNG3/5-A2] (Eterna round: R96, puzzle: Exclusion NG 3) |  |  |  | 0.0238 µM |  |  |
| UUUAAUUUUUUUUUUUUACAAGCUUUUUGCUCGUCUUAUACAUGAGGAUCACCCAUGUAAAUGGGAAGUAAAUUAUC [JMF 50] (puzzle: Sensor v3, turn-off variant 2) |  |  | 0.207 µM |  | 0.0595 µM | 0.0931 µM |
| UUUAAUUUUUUUUUUUUACAAGCUUUUUGCUCGUCUUAUACAUGAGGAUCACCCAUGUAAGUGAGGGAUAAAUUAUC [JMF 40] (puzzle: Sensor v3, turn-off variant 2) |  |  | 0.0228 µM |  | 0.0156 µM | 0.0156 µM |
| UUUAAUUUUUUUUUUUUACAAGCUUUUUGCUCGUCUUAUACAUGAGGAUCACCCAUGUAAGUGGAGGAUAAAUUAUC [JMF 33] (puzzle: Sensor v3, turn-off variant 2) |  |  | 0.0238 µM |  | 0.0247 µM | 0.0241 µM |
| UUUAAUUUUUUUUUUUUACAAGCUUUUUGCUCGUCUUAUACAUGAGGAUCACCCAUGUAAGUGGGAAGUAAAUUAUC [JMF 54] (puzzle: Sensor v3, turn-off variant 2) |  |  | 0.184 µM |  | 0.0483 µM | 0.0838 µM |
| UUUAAUUUUUUUUUUUUACAAGCUUUUUGCUCGUCUUAUACAUGAGGAUCACCCAUGUAGAUGGAGGAUAAAUUAUC [JMF 32] (puzzle: Sensor v3, turn-off variant 2) |  |  | 0.0289 µM |  | 0.0144 µM | 0.0152 µM |
| UUUAAUUUUUUUUUUUUACAAGCUUUUUGCUCGUCUUAUACAUGAGGAUCACCCAUGUGAGUGGAAGAUAAAUUAUC [JMF 11] (puzzle: Sensor v3, turn-off variant 2) |  |  | 0.015 µM |  | 0.0151 µM | 0.0179 µM |
| UUUAAUUUUUUUUUUUUACAAGCUUUUUGCUCGUCUUAUACAUGAGGAUCACCCAUGUGGAUGGGAGAUAAAUUAUC [JMF 19] (puzzle: Sensor v3, turn-off variant 2) |  |  | 0.164 µM |  | 0.0309 µM | 0.0364 µM |
| UUUAAUUUUUUUUUUUUACAAGCUUUUUGCUCGUCUUAUACAUGAGGAUCACCCAUGUGGGUAAAGGAUAAAUUAUC [JMF 25] (puzzle: Sensor v3, turn-off variant 2) |  |  | 0.0391 µM |  | 0.0316 µM | 0.0341 µM |
| UUUAAUUUUUUUUUUUUACAAGCUUUUUGCUCGUCUUAUACAUGAGGAUCACCCAUGUGGGUGAAAAGUAAAUUAUC [JMF 44] (puzzle: Sensor v3, turn-off variant 2) |  |  | 0.0187 µM |  | 0.0224 µM | 0.0331 µM |
| UUUAAUUUUUUUUUUUUACAAGCUUUUUGCUCGUCUUAUACAUGAGGAUCACCCAUGUGGGUGGAAAAUAAAUUAUC [JMF 92] (Eterna round: R96, puzzle: Sensor v3, turn-off variant 2) | 0.583 µM | 0.472 µM |  | 0.232 µM |  |  |
